Laboratory results reported in PMC4551922, “Nucleic acid-binding specificity of human FUS protein”.
Where two headings read alike, the source gives them in different places.

Experiments:
MBP-FUS [1] = biological target: T1, MBP-FUS (human, UniProt P35637 1-526); experiment: EMSA; details: EMSA: 50 mM Tris-HCl pH 7.4, 150 mM KCl, 2 mM MgCl2, 2 mM DTT, 0.1 mg/ml yeast tRNA, 0.1 mg/ml BSA, room temperature, 30 min, trace 32P-RNA
[2] = system: MS2 coat protein (bacteriophage MS2?); details: EMSA: 50 mM Tris-HCl pH 7.4, 150 mM KCl, 2 mM MgCl2, 2 mM DTT, 0.1 mg/ml yeast tRNA, 0.1 mg/ml BSA, room temperature, 30 min, trace 32P-RNA
[3] = system: MS2 coat protein (bacteriophage MS2?); details: EMSA: 50 mM Tris-HCl pH 7.4, 150 mM KCl, 2 mM MgCl2, 2 mM DTT, 0.1 mg/ml yeast tRNA, 0.1 mg/ml BSA, room temperature, 30 min, trace 32P-RNA; remark: listed apart in the source
MBP-FUS [4] = biological target: T1, MBP-FUS; experiment: EMSA; EMSA: 50 mM Tris-HCl pH 7.4, 150 mM KCl, 2 mM MgCl2, 2 mM DTT, 0.1 mg/ml yeast tRNA, 0.1 mg/ml BSA, room temperature, 30 min, trace 32P-RNA; details: protein: recombinant, tags: N-terminal His6-MBP (not cleaved)
MBP-LC-RRM = MBP-LC-RRM (human, UniProt P35637 1-384); experiment: as above; details: protein: recombinant, tags: N-terminal MBP, label: 32P
Chain of MBP-LC-RRM (P35637 1-384): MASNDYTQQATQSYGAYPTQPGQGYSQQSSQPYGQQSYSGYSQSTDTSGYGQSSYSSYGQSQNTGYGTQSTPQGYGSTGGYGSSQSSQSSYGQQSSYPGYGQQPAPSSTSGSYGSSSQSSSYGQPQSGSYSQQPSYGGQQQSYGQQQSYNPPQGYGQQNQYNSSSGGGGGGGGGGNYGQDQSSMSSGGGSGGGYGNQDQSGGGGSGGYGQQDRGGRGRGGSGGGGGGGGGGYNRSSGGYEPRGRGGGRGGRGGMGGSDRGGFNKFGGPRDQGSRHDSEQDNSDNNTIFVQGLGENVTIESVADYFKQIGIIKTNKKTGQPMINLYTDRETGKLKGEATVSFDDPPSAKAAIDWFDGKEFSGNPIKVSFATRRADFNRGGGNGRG

MBP-RGG-Znf-RGG = MBP-RGG-Znf-RGG (human, UniProt P35637 385-526); experiment: as above; details: protein: recombinant, tags: N-terminal MBP, label: 32P
Chain of MBP-RGG-Znf-RGG (P35637 385-526): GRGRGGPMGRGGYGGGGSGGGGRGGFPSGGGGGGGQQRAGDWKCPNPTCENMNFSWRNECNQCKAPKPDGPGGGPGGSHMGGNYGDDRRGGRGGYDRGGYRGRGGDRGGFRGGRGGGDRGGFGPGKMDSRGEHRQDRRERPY

MBP-FUS [5] = biological target: T1, MBP-FUS; experiment: competition; cold ssDNA vs labeled prD ssRNA; EMSA: 50 mM Tris-HCl pH 7.4, 150 mM KCl, 2 mM MgCl2, 2 mM DTT, 0.1 mg/ml yeast tRNA, 0.1 mg/ml BSA, room temperature, 30 min, trace 32P-RNA; details: protein: recombinant; tags: N-terminal His6-MBP (not cleaved); chain copies: 4; label: 32P
MBP-FUS [6] = biological target: T1, MBP-FUS; experiment: EMSA; weaker than full prD; similar to 3'prD; EMSA: 50 mM Tris-HCl pH 7.4, 150 mM KCl, 2 mM MgCl2, 2 mM DTT, 0.1 mg/ml yeast tRNA, 0.1 mg/ml BSA, room temperature, 30 min, trace 32P-RNA; details: protein: recombinant; tags: N-terminal His6-MBP (not cleaved); label: 32P
MBP-FUS [7] = biological target: T1, MBP-FUS; experiment: EMSA; weaker than full prD; similar to 5'prD; EMSA: 50 mM Tris-HCl pH 7.4, 150 mM KCl, 2 mM MgCl2, 2 mM DTT, 0.1 mg/ml yeast tRNA, 0.1 mg/ml BSA, room temperature, 30 min, trace 32P-RNA; details: protein: recombinant; tags: N-terminal His6-MBP (not cleaved); label: 32P
[8] = chain copies: 4, label: 32P, blunt

T1 sequence (P35637 whole entry): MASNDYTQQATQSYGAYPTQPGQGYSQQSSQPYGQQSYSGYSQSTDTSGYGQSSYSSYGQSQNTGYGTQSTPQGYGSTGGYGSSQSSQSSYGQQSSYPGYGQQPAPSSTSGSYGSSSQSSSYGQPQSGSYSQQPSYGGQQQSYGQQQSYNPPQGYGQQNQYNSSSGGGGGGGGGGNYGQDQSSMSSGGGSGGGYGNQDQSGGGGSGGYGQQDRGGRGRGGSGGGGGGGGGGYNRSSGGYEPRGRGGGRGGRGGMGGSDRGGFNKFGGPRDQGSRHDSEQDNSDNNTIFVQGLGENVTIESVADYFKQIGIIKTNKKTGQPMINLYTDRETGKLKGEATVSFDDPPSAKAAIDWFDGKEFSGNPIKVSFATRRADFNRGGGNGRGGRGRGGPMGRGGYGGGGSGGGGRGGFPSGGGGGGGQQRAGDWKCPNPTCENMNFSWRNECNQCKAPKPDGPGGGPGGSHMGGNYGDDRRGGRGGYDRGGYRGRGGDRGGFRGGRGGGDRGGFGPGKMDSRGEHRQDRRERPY

TERRA
Kd (MBP-FUS [1]): 116 nM

MBP 1-100 MS2
Kd [2]: 100 nM

MS2 motif 21 nt
Kd [3]: 10 nM

MBP 1-200
Kd (MBP-FUS [1]): 56 nM

AGGGTTAGGGTTAGGGTTAGGG (structured_DNA) [Htelo DNA]
Kd (MBP-FUS [4]; label: 32P): 730 ± 38 nM

CCUUAACCCCUCUCUGCCUUCACUCCAACUUCUCUGCUGCUCCUCAAU (ssRNA) [As-prD RNA]
Kd (MBP-FUS [4]; label: 32P): 79 ± 4 nM
Kd (MBP-LC-RRM): 280 ± 22 nM
Kd (MBP-RGG-Znf-RGG): 260 ± 32 nM

B1: prD dsRNA (dsRNA)
RNA 1: AUUGAGGAGCAGCAGAGAAGUUGGAGUGAAGGCAGAGAGGGGUUAAGG
RNA 2: CCUUAACCCCUCUCUGCCUUCACUCCAACUUCUCUGCUGCUCCUCAAU
Kd (MBP-FUS [4]; [8]): 350 ± 38 nM
Kd (MBP-LC-RRM; blunt): 2100 ± 60 nM
Kd (MBP-RGG-Znf-RGG; blunt): 1100 ± 80 nM

B2: prD DNA/RNA hybrid (DNA:RNA)
DNA: ATTGAGGAGCAGCAGAGAAGTTGGAGTGAAGGCAGAGAGGGGTTAAGG
RNA: B1 RNA 2
Kd (MBP-FUS [4]; [8]): 980 ± 100 nM
Kd (MBP-LC-RRM; blunt): 1200 ± 250 nM
Kd (MBP-RGG-Znf-RGG; blunt): 1100 ± 110 nM

UUGUAUUUUGAGCUAGUUUGGUGAC (ssRNA) [GGUG]
Kd (MBP-FUS [4]): 600 ± 20 nM

ATTGAGGAGCAGCAGAGAAGTTGGAGTGAAGGCAGAGAGGGGTTAAGG (ssDNA) [prD ssDNA]
binding signal (MBP-FUS [5]): 10 fold more than ssRNA
Kd (MBP-FUS [4]; chain copies: 4, label: 32P): 280 ± 26 nM
Kd (MBP-LC-RRM): 220 ± 32 nM
Kd (MBP-RGG-Znf-RGG): 290 ± 29 nM

B3: prD dsDNA (dsDNA)
DNA 1: B2 DNA
DNA 2: CCTTAACCCCTCTCTGCCTTCACTCCAACTTCTCTGCTGCTCCTCAAT
Kd (MBP-FUS [4]; [8]): 1200 ± 110 nM
Kd (MBP-LC-RRM; blunt): 1400 ± 170 nM
Kd (MBP-RGG-Znf-RGG; blunt): 1000 ± 81 nM

AUUGAGGAGCAGCAGAGAAGUUGG (ssRNA) [5'prD]
binding result (MBP-FUS [6]): binds

AGUGAAGGCAGAGAGGGGUUAAGG (ssRNA) [3'prD]
binding result (MBP-FUS [7]): binds

CAACUUAGGUGGUUGAUUUGA (ssRNA) [GUGGU]
Kd (MBP-FUS [4]; label: 32P): 980 ± 42 nM

GGGAGACCAAAACUGAAGAAGGUAA (ssRNA) [MBP 1-20]
binding result (MBP-FUS [4]; label: 32P): binds

UUGUAUUUUGAGCUAGUUUCCUCAC (ssRNA) [GGUG neg]
Kd (MBP-FUS [4]; label: 32P): 840 ± 50 nM

AUUGAGGAGCAGCAGAGAAGUUGGAGUGAAGGCAGAGAGGGGUUAAGG (ssRNA) [prD RNA]
Kd (MBP-FUS [4]; label: 32P): 97 ± 2 nM
Kd (MBP-LC-RRM): 60 ± 3 nM
Kd (MBP-RGG-Znf-RGG): 81 ± 2 nM

AGGGTTAGTGTTAGTGTTAGGG (ssDNA) [Htelo DNA neg]
Kd (MBP-FUS [4]; label: 32P): 690 ± 48 nM

GAUUUAUCUUUAACUACUCAAGAUACUGAACAUGACA (structured_RNA) [Stem-loop]
Kd (MBP-FUS [4]; label: 32P, hairpin): 430 ± 28 nM

GAUUUAUCUUUAACUACUCUAUCUUCUGAACAUGACA (ssRNA) [Stem-loop neg]
Kd (MBP-FUS [4]; label: 32P): 460 ± 39 nM

AAAAAAAAAAAAAAAAAAAAAAAA (ssRNA) [polyA 24-mer]
Kd (MBP-FUS [4]; label: 32P): 846 nM

AGGUCUCAGUUCAUCGCGCGAGGUUAUAGU (ssRNA) [CGCGC]
Kd (MBP-FUS [4]; label: 32P): 290 ± 13 nM

GGGAGACCAAAACUG (ssRNA) [MBP 1-10]
binding result (MBP-FUS [4]; label: 32P): no binding
